Results on 6 molecules are retold here after US20250034222A1, “IL-38 VARIANTS” (Monash University, priority 2021, published 2025).

“Also recorded” adds a separate entry of the source.

One series concerns IRF3/7. Description: Poly (I:C)-induced IRF3/7 Quanti-Luc in A549-Dual reporter cells. Format: cell-based, Human. The settings on record: 1 ng/ml Poly (I:C) LMW, 100 nM/l to 100 fM/l variant, 20 h, dexamethasone 5 nM benchmark. As for the experimental part:
FIG. 17: IL-38-Fc reduces Poly (I:C)-induced IRF3/7 Quanti-Luc in Human NF-kB-SEAP & IRFLuc Reporter A549-Dual cells from Invivogen (lung epithelial cells). A549-Dual cells were pretreated for 1 h with lipofectamine and (1 ng/ml) Poly (I:C) low molecular weight (LMW) and then stimulated dose dependently (A) 100 nM/l, (B) 1 nM/l, (C) 10 pM/l, (D) 100 fM/l with different IL-38 variants or dexamethasone (5 nM) as benchmark for 20 h. […]
6 μl of A549 Dual cell supernatants or plain stimulation media (background control) and 15 μl of QUANTI-Luc™ solution (InvivoGen) were added to a 384-well plate (Opti-plate-384, PerkinElmer, #6007290) and immediately measured as per manufacturer's instructions. After background subtraction, the %-change in luciferase activity of IL-38 variants (1 nm/l)+Poly (I:C) treated conditions over poly (I:C)+vehicle-treated cells were calculated ([…] of cells treated with poly (I:C)+vehicle=100%).

The nature of series [1]: SEC analysis of monomer:dimer proportion of IL-38 variants upon purification. Particulars: for capacity to form a homodimer / monomer: SEC upon purification, FIG. 11. Format: physicochemical. On the procedure:
Recombinant IL-38 variants were expressed in BL21-CodonPlus(DE3)-RIL cells (Stratagene) by 0.5 mM IPTG induction (OD600 0.8) overnight at 18° C. Cells expressing IL-38 variants were lysed by sonication in 50 mM Tris-HCl (pH 8.0), 500 mM NaCl, 3 mM β-mercaptoethanol, and 30 mM imidazole. Cells were clarified by centrifugation, filtered through a 0.8 μm membrane, and bound to Ni-NTA resin (Qiagen) for 1 hour at 4° C. on a rotating platform. The resin was washed with 300 ml of 50 mM Tris-HCl (pH 8.0), 500 mM NaCl, 3 mM β-mercaptoethanol, and 30 mM imidazole. The protein was eluted from the Ni-NTA resin (Qiagen) in a buffer containing 50 mM Tris-HCl (pH 8.0), 500 mM NaCl, 3 mM β-mercaptoethanol, and 400 mM imidazole. Protein was further purified on a Superdex 75 Increase 10/300 GL column (Cytiva Life Sciences) in 10 mM HEPES (pH 7.2), 150 mM NaCl, and 2 mM DTT.
The number and elution volume of the elution peaks are indicative of whether the size of the recombinant protein corresponds to monomeric or dimeric IL-38 conformations or both conformations. The proportion of monomer: dimer for each mutant (FIGS. 9 and 11) were calculated by comparing the area under the monomer and dimer peaks from three individual purifications.

Series [2] can be described thus: Analytical SEC of IL-38 variants upon extended incubation. Format: physicochemical. The settings on record: 0.165 mg/ml, 37° C., 16 hours, Sorensen's phosphate buffer pH 7.0, 5% glycerol. On the procedure: To examine the monomer-dimer equilibrium upon extended incubation, indicated IL-38 variants (residues 3-152, C-terminal His6 tag) were incubated at 0.165 mg/ml and 37° C. for 16 hours in Sorensen's phosphate buffer (0.13 M, pH 7.0) with 5% (v/v) glycerol. The monomer: dimer proportion was examined by analytical SEC on a Superdex 75 Increase 10/300 GL column (Cytiva Life Sciences).

Where [3] appears, read: SEC, area under monomer and dimer peaks.

B1: ΔT53: Locked homodimer IL-38 variant, T53 deleted (protein, UniProt Q8WWZ1 1-152, looked up, variant T53*)
Interleukin-1 family member 10: MCSLPMARYYIIKYADQKALYTRDGQLLVGDPVADNCCAEKICILPNRGLARKVPIFLGIQGGSRCLACVETEEGPSLQLEDVNIEELYKGGEEATRFTFFQSSSGSAFRLEAAAWPGWFLCGPAEPQQPVQLTKESEPSARTKFYFEQSW
Consider B1, for which the “reduction in poly (I:C)-induced IRF3/7 (Quanti-Luc)” value in the series on IRF3/7 is “only marginal reduction”. Moreover, the “capacity to form a homodimer / monomer” value in series [1] was “stable locked dimer”. Further, the “monomer-dimer equilibrium upon extended incubation” value in series [2] is “stable as a dimer”.

B2: IL-38 (A51D): Variant of IL-38 that forms monomer; SNP rs6743376, mutation at residue 51 (A51D), residues 3-152 (protein)
chain: SLPMARYYIIKYADQKALYTRDGQLLVGDPVADNCCAEKICILPNRGLDRTKVPIFLGIQGGSRCLACVETEEGPSLQLEDVNIEELYKGGEEATRFTFFQSSSGSAFRLEAAAWPGWFLCGPAEPQQPVQLTKESEPSARTKFYFEQSW
Turning to B2, the “capacity to form a homodimer / monomer” value in series [1] was “reduced capacity to form a homodimer”. The “monomer-dimer equilibrium upon extended incubation” value in series [2] is “more stable monomer; also recorded: stable monomer”.

B3: WT IL-38: Wild-type IL-38, residues 3-152, alanine at position 51 (called D51A) (protein)
chain: SLPMARYYIIKYADQKALYTRDGQLLVGDPVADNCCAEKICILPNRGLARTKVPIFLGIQGGSRCLACVETEEGPSLQLEDVNIEELYKGGEEATRFTFFQSSSGSAFRLEAAAWPGWFLCGPAEPQQPVQLTKESEPSARTKFYFEQSW
In the case of B3, the “reduction in poly (I:C)-induced IRF3/7 (Quanti-Luc)” value with IRF3/7 was “slightly less potent than A51D (non-fused) IL-38”. In series [1] (setting [3]), the “dimer formed upon purification” value is listed as approximately 20% and the monomer upon purification is reported as approximately 80%. Besides, the “monomer-dimer equilibrium upon extended incubation” value in series [2] is given as “slow equilibrium between the two states”.

B4: V55T: Variant of IL-38 V55T with increased capacity to form monomer, residues 3-152 (protein)
chain: SLPMARYYIIKYADQKALYTRDGQLLVGDPVADNCCAEKICILPNRGLARTKTPIFLGIQGGSRCLACVETEEGPSLQLEDVNIEELYKGGEEATRFTFFQSSSGSAFRLEAAAWPGWFLCGPAEPQQPVQLTKESEPSARTKFYFEQSW
As for B4, in series [1], the “capacity to form a homodimer / monomer” value is on record as “reduced capacity to form a homodimer”.

B5: V55Q: Variant of IL-38 V55Q with increased capacity to form monomer, residues 3-152 (protein)
chain: SLPMARYYIIKYADQKALYTRDGQLLVGDPVADNCCAEKICILPNRGLARTKQPIFLGIQGGSRCLACVETEEGPSLQLEDVNIEELYKGGEEATRFTFFQSSSGSAFRLEAAAWPGWFLCGPAEPQQPVQLTKESEPSARTKFYFEQSW
Turning to B5, the “capacity to form a homodimer / monomer” value in series [1] is recorded as “reduced capacity to form a homodimer”.

B6: T53N: Variant of IL-38 T53N with increased capacity to form monomer, residues 3-152 (protein)
chain: SLPMARYYIIKYADQKALYTRDGQLLVGDPVADNCCAEKICILPNRGLARNKVPIFLGIQGGSRCLACVETEEGPSLQLEDVNIEELYKGGEEATRFTFFQSSSGSAFRLEAAAWPGWFLCGPAEPQQPVQLTKESEPSARTKFYFEQSW
As to B6, the “capacity to form a homodimer / monomer” value in series [1] is reported as “reduced capacity to form a homodimer”.
